Test results published in the RNAGym collection of RNA variant scans (doi:10.1073/pnas.2313332121).

B1: TPR t1 (parent)
chain: GACCAAUCUGCCCUCAGAGCUCGAGAACAUCUUCGGAUGCAGAGGAGGCAGGCUUCGGUGGCGCGAUAGCGCCAACGUCCUCAACCUCCAAUGCAUCCCACCACAUGAUGAUGCCUGAAGAGCCUUGGUUUUUUG

Variants of: B1
Experiment: polymerase ribozyme fitness, log enrichment relative to wild type (log ratio); higher = more active; in vitro selection for triplet polymerase activity
Method in brief: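 Mutant libraries were PCR-built and transcribed for each subunit of a heterodimeric triplet polymerase ribozyme and selected for one round in triplicate at −7 °C, frozen, before gel excision of extended constructs and streptavidin-bead capture. Input and output libraries were Illumina-sequenced, keeping genotypes with ≥10 input reads and ≥1 read per output. Fitness is a logarithmic ratio of genotype to wild-type enrichment, in base 2, using inverse-variance-weighted replicate averages.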

Variant	polymerase ribozyme fitness (log ratio)
GACCAAUCUGCCCUCAGAGCUCGAGAACAUCUUCGGAUGCAGAGGAGGCCGGCUUCGGUGGCGCGAUAGCGCCAACGUCCUCAACCUCCAAUGCAUCCCACCACAUGAUGAUGCCUGAAGUGCCUUGGUUUUUUG	2.16
GACCAAUCUGCCCUCAGAGCUCGAGAACAUCUUCGGAUGCAGAGGAGGCCGGGUUCGGUGGCGCGAUAGCGCAAACGUCCUCAACCUCCAAUGCAUCCCACCACAUGAUGAUGCCUGAAGAGCCUGGGUUUUUUG	-2.99
GACCAAUCUGCCCUCAGAGCUCGAGAACAUCUUCGGAUGCAGAGGAGGUAGGCUUCGGUGGCGCGAUAGCGCCAACGUCCUCAACCUCCAAUGCAUCCCACCACAUGAUGAUGCCUGAAGAGCCUUGGAUUUUUG	-1.47
GACCAAUCUGCCCUCAGAGCUCGAGAACAUCUUCGGAUGCAGAGGAGGCCGGCUUCGGUGGCGCGAUAGCGCCAACGUCCUCAACCUCCAAUGCAUCCCACCACAUGAUGAUGCAUGAAGAGCCUUGGUUUUUUG	-1.39
GACCAAUCUGCCCUCAGAGCUCGAGAACAUCUUCGGAUGCAGAGGAGGCCGGCUUCGGUGGCGCGAUAGCGCCAGCGUCCUCAACCUCCAAUGCCUCCCACCACAUGAUGAUGCCUGAAGAGUCUUGGUUUUUUG	0.24
GACCAAUCUGCCCUCAGAGCUCGAGAACAUCUUCGGAUGCAGAGGAGGCCGGCUUCGGUGGCGCGAUAGCGCCAACGUCCUCAACCUCCAAUGCAUCCCACCACAUGAUGAUGCCUGAAGAGGCUUGGUUUUUUG	0.334
GACCAAUCUGCCCUCAGAGCUCGAGAACAUCUUCGGAUGCAGAGGAGGCCGGCUUCGGUGGCGCGAUAGAGCCAACGUCCUGACCCUCCAAUGCAUCCCACCACAUGAUGAUGCCUGAAGAGCCUUGGUUUUUUG	-2.37
GACCAAUCUGCCCUCAGAGCUCGAGAACAUCUUCGGAUGCAGAGGAGGCCGGCUUCGGUGGCGCGAUAGCGCCAACGUCCUAAACCUCCAAUGCAUCCCACCACAUGAUGAUGCCUGAAGAGCCUUGGUUUUUUG	-0.499
GACCAAUCUGCCCUCAGAGCUCGAGAACAUCUUCGGAUGCAGAGGAGGUAGGCUUCGGUGGCGCGAUAGCGCCAACGUCCUCAACCUCCAAUGCAUCCCACCACAUGAUGAUGCCUGAAGAGCCUUGGUUAUUUG	-0.481
GACCAAUCUGCCCUCAGAGCUCGAGAACAUCUUCGGAUGCAGAGGAGGCCGGCUUCGGUGGCGCGAUAGCGCCAACGUCCUCAACCUCAAAUGCAUCCCACCACAUGAUGAUGCCUGAAGAGCCUUGGUUUUUUG	-2.41
GACCAAUCUGCCCUCAGAGCUCGAGAACAUCUUCGGAUGCAGAGGAGGCCGGCUUCGGUGGCGCGAUAGCGCGAACGUCCUCAACCUCCAAUGCAUCCCACCACAUGAUGAUGCCUGAAGAGCCUUGGUUUUUUG	-1.15
GACCAAUCUGCCCUCAGAGCUCGAGAACAUCUUCGGAUGCAGAGGAGGCCGGCUUCGGUGGCGCGAUAGCGUCAACGUCCGCAAACUCCAAUGCAUCCCACCACAUGAUGAUGCCUGAAGAGCCUUGGUUUUUUG	-1.34
GACCAAUCUGCCCUCAGAGCUCGAGAACAUCUUCGGAUGCAGAGGAGGCCGGCUUCGGUGGCGCGAUAGCGGCAACGUCCUCAACCGCCAAUGCAUCCCACCACAUGAUGAUGCCUGAACAGCCUUGGUUAUUUG	0.442
GACCAAUCUGCCCUCAGAGCUCGAGAACAUCUUCGGAUGCAGAGGAGGCCGGCUUAGGUGGCGCGGUAGCGCCAACGUCCUCAACCUCCAAUGCAUCCCACCACAUGAUGAUGCCUGAAGAGCCUUGGUUUUUUG	-2.8
GACCAAUCUGCCCUCAGAGCUCGAGAACAUCUUCGGAUGCAGAGGAGGCCGGCUUCGGUGGCGCGAUAGCGUCAACGUCCUCAACCUCCAAUUCAUCCCACCACAUGAUGAGGCCUGAAGAGCCUUGGUUUUUUG	-2.29
GACCAAUCUGCCCUCAGAGCUCGAGAACAUCUUCGGAUGCAGAGGAGGCCGGCUUCGGUGGCGCGAUAGCGUCAACGUCCUCAACCUCCAAUGCAUCCCACCACAUGAUGAUGCCUGAAGAGCCUUGGUUUUUUG	-0.602
GACCAAUCUGCCCUCAGAGCUCGAGAACAUCUUCGGAUGCAGAGGAGGCCGGCUUCGGUGGCGCGAUAGCGGCAACGUCCUCAACCUCCAAUGCAUCCCACCACAUGAUGAUGCCUGAAGAGCCUUGGUUUUUUG	-0.555
GACCAAUCUGCCCUCAGAGCUCGAGAACAUCUUCGGAUGCAGAGGAGGCCGGCUUCGGUGGCGCGAUAGCGCCAACGUCCUCAACCUCCUAUGCAUCCCACCACAUGAUGAUGCCUGAAGAGCCUUGGUUUUUUG	-2
GACCAAUCUGCCCUCAGAGCUCGAGAACAUCUUCGGAUGCAGAGGAGGCCGGCUUCGGUGGCGCGAUAGCGCCAACGUCCUCAACCUCCCAUGCAUCCCACCACAUGAUGAUGCCUGAAGAGCCUUGGUUUUUUG	-2.1
GACCAAUCUGCCCUCAGAGCUCGAGAACAUCUUCGGAUGCAGAGGAGGUAGGCUUCGGUGGCGCGAUAGCGCCAACGUCCUCAACCUCCAAUGCAUCCCACCACAUGAUGAUGCCUGAAGAGCCUUGGUAUUUUG	-0.901
GACCAAUCUGCCCUCAGAGCUCGAGAACAUCUUCGGAUGCAGAGGAGGUAGGCUUCGGUGGCGCGAUAGCGCCAACGUCCUCAACCUCCAAUGCAUCCCACCACAUGAUGAUGCCUGAAGAGCCUUGGUCUUUUG	0.0143
